These results are taken from the supplement of paper PMC9112550, “Optimization of the antimicrobial peptide Bac7 by deep mutational scanning” (BMC Biology, 2022).
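Further: peptides expressed intracellularly from a pBAD plasmid library in pooled LB shake-flask culture, induced with 0.3% L-arabinose, DNA abundance read by NGS, three biological replicates, DESeq2 with apeglm shrinkage.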

This series has as its system Escherichia coli TOP10. The series is described as follows: shrunken log2 fold change of peptide-encoding DNA abundance (4.5 h post-induction vs induction); higher = less antimicrobial activity (less host growth inhibition). The following applies: time post-induction: 4.5 h; library: site-saturation at positions 5, 18, 19, 20.
For RRIRQRPPRLPRPRPRPGISPRP, the “shrunken log2 fold change” value came to 0.0461.
With RRIRSRPPRLPRPRPRPSHQPRP the figure was -0.284.
On to RRIRHRPPRLPRPRPRPVHAPRP, for which the “shrunken log2 fold change” value was found to be 0.346.
With RRIRRRPPRLPRPRPRPCCMPRP the figure was -0.18; with RRIRWRPPRLPRPRPRPFTKPRP, -0.151; with RRIRMRPPRLPRPRPRPIYNPRP, -0.347.
With RRIRGRPPRLPRPRPRPKNSPRP the figure was 0.252.
With RRIRHRPPRLPRPRPRPNANPRP the figure was -0.801; with RRIRKRPPRLPRPRPRPSLMPRP, 0.256.
On to RRIRERPPRLPRPRPRPSRKPRP, for which the “shrunken log2 fold change” value was found to be 0.113.
RRIRSRPPRLPRPRPRPSHMPRP: the “shrunken log2 fold change” value is -0.993.
With RRIRPRPPRLPRPRPRPHREPRP the figure was -0.176; with RRIRNRPPRLPRPRPRPIDNPRP, -0.0163; with RRIRLRPPRLPRPRPRPTSWPRP, 0.199.
In the case of RRIRLRPPRLPRPRPRPWFPPRP it was -0.157; in that of RRIRPRPPRLPRPRPRPVYPPRP, 3.41.
Consider RRIRGRPPRLPRPRPRPNSHPRP, for which the “shrunken log2 fold change” value was determined as 0.285.
In the case of RRIRHRPPRLPRPRPRPEMFPRP it was 0.223; in that of RRIRSRPPRLPRPRPRPGFFPRP, 0.176.
In the case of RRIRVRPPRLPRPRPRPSMHPRP it was -0.177.
With RRIRNRPPRLPRPRPRPECMPRP, the “shrunken log2 fold change” value amounted to 0.406.
For RRIRDRPPRLPRPRPRPSRPPRP, the “shrunken log2 fold change” value came out at 0.452.
In the case of RRIRLRPPRLPRPRPRPMASPRP it was 0.0148.
As for RRIRARPPRLPRPRPRPRCGPRP, the “shrunken log2 fold change” value came out at 0.609.
RRIRFRPPRLPRPRPRPGHCPRP: the “shrunken log2 fold change” value was 0.0688.
In the case of RRIRQRPPRLPRPRPRPPGGPRP, the “shrunken log2 fold change” value turned out to be 0.448.
In the case of RRIRTRPPRLPRPRPRPNHSPRP it was -0.925.
Regarding RRIRLRPPRLPRPRPRPIQGPRP, the “shrunken log2 fold change” value was -0.226.
On to RRIRIRPPRLPRPRPRPAPSPRP, for which the “shrunken log2 fold change” value was found to be 0.444.
In the case of RRIRNRPPRLPRPRPRPIYTPRP it was -0.288; in that of RRIRARPPRLPRPRPRPMGTPRP, 0.304.
Regarding RRIRWRPPRLPRPRPRPCGIPRP, the “shrunken log2 fold change” value was determined as 0.0389.
With RRIRGRPPRLPRPRPRPQHIPRP, the “shrunken log2 fold change” value was -0.281.
With RRIRMRPPRLPRPRPRPGFWPRP, the “shrunken log2 fold change” value is 0.836.
With RRIRIRPPRLPRPRPRPVYFPRP the figure was -0.807.
RRIRRRPPRLPRPRPRPGAFPRP: the “shrunken log2 fold change” value is 0.539.
With RRIRLRPPRLPRPRPRPRTSPRP the figure was 0.288.
In the case of RRIRIRPPRLPRPRPRPGGMPRP it was -0.0648; in that of RRIRKRPPRLPRPRPRPGNCPRP, 0.0147; in that of RRIRQRPPRLPRPRPRPVTKPRP, -0.0142.
On to RRIRARPPRLPRPRPRPRWIPRP, for which the “shrunken log2 fold change” value came out at 0.239.
With RRIRCRPPRLPRPRPRPWHSPRP, the “shrunken log2 fold change” value amounted to 0.112.
In the case of RRIRMRPPRLPRPRPRPDNPPRP it was 0.0534; in that of RRIRVRPPRLPRPRPRPEERPRP, -0.194.
In the case of RRIRRRPPRLPRPRPRPDSDPRP it was 0.021.
Turning to RRIRPRPPRLPRPRPRPVSVPRP, the “shrunken log2 fold change” value worked out at 0.0528.
For the sequence RRIRGRPPRLPRPRPRPNKHPRP, the “shrunken log2 fold change” value is 0.124.
In the case of RRIRGRPPRLPRPRPRPWRTPRP it was -0.0149; in that of RRIRFRPPRLPRPRPRPWLAPRP, 2.73; in that of RRIRHRPPRLPRPRPRPVGGPRP, 0.417.
In the case of RRIRERPPRLPRPRPRPFSIPRP it was 0.00587; in that of RRIRMRPPRLPRPRPRPGLRPRP, 1.15.
With RRIRFRPPRLPRPRPRPKQHPRP the figure was -0.176; with RRIRCRPPRLPRPRPRPPIRPRP, 0.0846; with RRIRQRPPRLPRPRPRPLHKPRP, 0.0733.
As for RRIRRRPPRLPRPRPRPFHKPRP, the “shrunken log2 fold change” value is 0.0306.
RRIRSRPPRLPRPRPRPTPMPRP: the “shrunken log2 fold change” value is 0.61.
For RRIRWRPPRLPRPRPRPAGWPRP, the “shrunken log2 fold change” value is 0.922.
With RRIRLRPPRLPRPRPRPVFVPRP the figure was -0.198.
With RRIRGRPPRLPRPRPRPYPPPRP, the “shrunken log2 fold change” value was -0.0824.
With RRIRIRPPRLPRPRPRPLIQPRP the figure was -1.02; with RRIRWRPPRLPRPRPRPYYTPRP, -0.899.
In the case of RRIRERPPRLPRPRPRPRRYPRP, the “shrunken log2 fold change” value is -0.184.
For the sequence RRIRIRPPRLPRPRPRPVVPPRP, the “shrunken log2 fold change” value is -0.215.
On to RRIRTRPPRLPRPRPRPKWFPRP, for which the “shrunken log2 fold change” value is -0.0479.
In the case of RRIRTRPPRLPRPRPRPLHIPRP, the “shrunken log2 fold change” value stood at 0.0174.
With RRIRFRPPRLPRPRPRPSKIPRP the figure was 0.903; with RRIRSRPPRLPRPRPRPQFTPRP, -0.714.
In the case of RRIRVRPPRLPRPRPRPPPLPRP it was 0.669; in that of RRIRNRPPRLPRPRPRPCRTPRP, -0.124; in that of RRIRRRPPRLPRPRPRPPVWPRP, 0.328.
In the case of RRIRERPPRLPRPRPRPQELPRP it was -0.755; in that of RRIRFRPPRLPRPRPRPNQYPRP, -1.01.
Regarding RRIRIRPPRLPRPRPRPMNEPRP, the “shrunken log2 fold change” value was determined as 0.0707.
With RRIRERPPRLPRPRPRPSKAPRP the figure was -0.129; with RRIRARPPRLPRPRPRPSLRPRP, 0.109.
With RRIRMRPPRLPRPRPRPQPCPRP the figure was 0.376.
In the case of RRIRLRPPRLPRPRPRPLKWPRP it was -0.369; in that of RRIRPRPPRLPRPRPRPLMEPRP, 0.0162.
With RRIRCRPPRLPRPRPRPLLAPRP, the “shrunken log2 fold change” value turned out to be 0.229.
For the sequence RRIRYRPPRLPRPRPRPMSKPRP, the “shrunken log2 fold change” value was 3.29.
With RRIRKRPPRLPRPRPRPTSLPRP, the “shrunken log2 fold change” value is -0.00423.
In the case of RRIRCRPPRLPRPRPRPPMAPRP it was 0.263.
Take RRIRIRPPRLPRPRPRPEGNPRP: the “shrunken log2 fold change” value stood at 0.0775.
In the case of RRIRFRPPRLPRPRPRPRPMPRP, the “shrunken log2 fold change” value amounted to 0.856.
As for RRIRWRPPRLPRPRPRPMWVPRP, the “shrunken log2 fold change” value was -0.0542.
With RRIRLRPPRLPRPRPRPMNTPRP the figure was -0.524; with RRIRQRPPRLPRPRPRPIQFPRP, -0.282.
For RRIRQRPPRLPRPRPRPACLPRP, the “shrunken log2 fold change” value is 0.14.
Consider RRIRARPPRLPRPRPRPEPWPRP, for which the “shrunken log2 fold change” value was determined as 0.742.
In the case of RRIRYRPPRLPRPRPRPKKSPRP it was -0.298; in that of RRIRRRPPRLPRPRPRPGMKPRP, -0.133; in that of RRIRCRPPRLPRPRPRPWSDPRP, -0.324.
Consider RRIRFRPPRLPRPRPRPGAEPRP, for which the “shrunken log2 fold change” value was determined as 0.286.
As to RRIRKRPPRLPRPRPRPYTHPRP, the “shrunken log2 fold change” value was -0.376.
As for RRIRLRPPRLPRPRPRPCSGPRP, the “shrunken log2 fold change” value came to 0.0583.
In the case of RRIRPRPPRLPRPRPRPQAPPRP, the “shrunken log2 fold change” value is -0.0721.
Turning to RRIRRRPPRLPRPRPRPGVVPRP, the “shrunken log2 fold change” value was 0.281.
As to RRIRDRPPRLPRPRPRPLSSPRP, the “shrunken log2 fold change” value worked out at 0.184.
With RRIRNRPPRLPRPRPRPPMWPRP the figure was -0.115; with RRIRIRPPRLPRPRPRPLEKPRP, -0.0295; with RRIRYRPPRLPRPRPRPPFNPRP, -0.309.
As for RRIRSRPPRLPRPRPRPRWWPRP, the “shrunken log2 fold change” value was 1.26.
With RRIRDRPPRLPRPRPRPNKRPRP, the “shrunken log2 fold change” value was -0.14.
In the case of RRIRPRPPRLPRPRPRPHTHPRP it was -0.434; in that of RRIRFRPPRLPRPRPRPEHIPRP, -0.161; in that of RRIRGRPPRLPRPRPRPCVQPRP, 0.523.
Take RRIRQRPPRLPRPRPRPEEQPRP: the “shrunken log2 fold change” value was 0.39.
On to RRIRPRPPRLPRPRPRPCVAPRP, for which the “shrunken log2 fold change” value amounted to 0.51.
In the case of RRIRLRPPRLPRPRPRPWNQPRP it was 0.0295; in that of RRIRGRPPRLPRPRPRPNTRPRP, 0.528.
Take RRIRARPPRLPRPRPRPWINPRP: the “shrunken log2 fold change” value was -0.218.
With RRIRIRPPRLPRPRPRPIFTPRP the figure was 0.0285.
In the case of RRIRYRPPRLPRPRPRPCCKPRP it was 0.0599; in that of RRIRDRPPRLPRPRPRPARVPRP, 0.948; in that of RRIRARPPRLPRPRPRPRQFPRP, 0.32.
With RRIRKRPPRLPRPRPRPDTDPRP the figure was 0.198; with RRIRMRPPRLPRPRPRPFYKPRP, -0.266.
On to RRIRRRPPRLPRPRPRPGLHPRP, for which the “shrunken log2 fold change” value came out at 0.0196.
With RRIRFRPPRLPRPRPRPIRTPRP, the “shrunken log2 fold change” value was -0.0861.
Take RRIRRRPPRLPRPRPRPLAPPRP: the “shrunken log2 fold change” value stood at 0.399.
On to RRIRNRPPRLPRPRPRPKVMPRP, for which the “shrunken log2 fold change” value was -0.0516.
With RRIRVRPPRLPRPRPRPLQSPRP, the “shrunken log2 fold change” value worked out at 0.12.
For RRIRPRPPRLPRPRPRPCTDPRP, the “shrunken log2 fold change” value is -0.0332.
In the case of RRIRLRPPRLPRPRPRPLAKPRP it was 0.0773.
